According to paper PMC3884669:

Molecular target: Drosophila CstF64 (Drosophila (endogenous in Kc cells)) (UniProt Q86NL1)
Experiment: co-IP

- percent precipitated by the anti-CstF64 antibody: > 10%
Substance: Drosophila Lsm11 (endogenous) (natural protein)
